Assay results as given in patent US20240376151A1 (FOG PHARMACEUTICALS, published 2024).
Bridge positions count the residues as written; N and C are the ends.

Tests used:
[1] = target: T1, active CDK2 (with T160 phosphorylated) (Homo sapiens (Human), UniProt P24941 1-298); experiment: SPR, ligand CDK2 (pT160), additive 200 nM Dinaciclib
[2] = target: T1, active CDK2 (with T160 phosphorylated); experiment: SPR, ligand CDK2 (pT160), no additive
[3] = target: CDK2:Cyclin E1 (CCNE1) complex (UniProt P24864 81-363); experiment: SPR, ligand CDK2 (pT160) : CCNE1
[4] = target: T1, active CDK2 (with T160 phosphorylated); experiment: SPR, ligand CDK2 (pT160), additives 2 mM AMPPNP, 5mM MgCl2
[5] = target: T2, PPIA, full length (residues 1-165) (human, UniProt P62937 1-165); experiment: assay not named on the sheet; printed beside the co-crystal structure
T2 construct: also called Cyclophilin A; peptidyl-prolyl cis-trans isomerase A

[6] = target: T2, PPIA, full length (residues 1-165); experiment: SPR, affinity fit
[7] = target: T3, beta-catenin Armadillo domain, residues 134-665 (human, UniProt P35222 134-665, biotinylated through the N-terminal yBBr tag for SPR; tag cleaved off for crystallography); experiment: SPR, alanine-scanning table
T3 construct: also called β-catenin; CTNNB1
T3 sequence: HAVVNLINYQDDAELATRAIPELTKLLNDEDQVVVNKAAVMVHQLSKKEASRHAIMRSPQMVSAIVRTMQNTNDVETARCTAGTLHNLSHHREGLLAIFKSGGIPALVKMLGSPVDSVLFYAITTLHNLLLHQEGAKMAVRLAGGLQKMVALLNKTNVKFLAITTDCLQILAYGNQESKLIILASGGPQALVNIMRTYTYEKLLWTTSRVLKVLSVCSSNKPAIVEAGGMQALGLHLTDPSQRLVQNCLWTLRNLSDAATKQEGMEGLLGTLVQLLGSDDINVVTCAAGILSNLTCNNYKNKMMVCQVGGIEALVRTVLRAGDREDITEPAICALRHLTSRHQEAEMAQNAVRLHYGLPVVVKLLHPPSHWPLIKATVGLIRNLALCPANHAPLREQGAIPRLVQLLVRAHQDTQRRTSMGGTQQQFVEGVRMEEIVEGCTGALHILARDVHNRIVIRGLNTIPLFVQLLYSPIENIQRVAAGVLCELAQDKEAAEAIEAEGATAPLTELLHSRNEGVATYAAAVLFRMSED

[8] = target: T3, beta-catenin Armadillo domain, residues …; experiment: SPR, immobilized β-catenin, MDM2 flowed in the presence of 1 µM Helicon H330 (1.m112)
[9] = target: T3, beta-catenin Armadillo domain, residues …; experiment: SPR, immobilized β-catenin, MDM2 flowed in the presence of 1 µM Helicon H332 (1.m114)

T2 sequence (P62937 whole entry, the tested form may be a part): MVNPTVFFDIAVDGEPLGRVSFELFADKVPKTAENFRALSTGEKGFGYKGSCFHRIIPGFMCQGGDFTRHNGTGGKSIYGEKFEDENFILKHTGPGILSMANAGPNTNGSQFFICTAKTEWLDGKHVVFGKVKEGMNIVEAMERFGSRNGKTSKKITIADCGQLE

Ac-DPAWWVCAIAAIECSDV-NH2 (bridge 7-14; not fully specified (bridges), Cluster C51) [FP19711]
Kd [1]: 2 µM | Kd [2]: 1.7 µM | Kd [3]: 1.7 µM | Kd [4]: 0.9 µM

B1: FP33215 (peptide)
peptide: Ac-WWVCAIAAIECSD-NH2
modifications: bridge 4-11; also: Cys staple linker not named
notes: also called truncated version of FP19711
Kd [3]: 0.27 µM

Ac-PECHIEAYWCI-NH2 (bridge 3-10; not fully specified (bridges); printed as Ac-PECHIEA YWCI-NH2, Cluster C54) [FP29102]
Kd [5]: 11 µM

Ac-PDCHIRAYVCH-NH2 (bridge 3-10; not fully specified (bridges), Cluster C54) [FP29103]
Kd [6]: 10 µM

B2: FP49251 (peptide)
stapled peptide: Ac-DPATARCEWAALHCELV-NH2
modifications: bridge 7-14; not fully specified (bridges); printed as Ac-DPATARCEWAALHCELV-NH2
notes: also called H-to-A member of the alanine-scanning series of FP01567
Kd [7]: 0.4 µM

B3: FP49259 (peptide)
stapled peptide: Ac-DPATHRCEWAALHCELA-NH2
modifications: bridge 7-14; not fully specified (bridges)
notes: also called V-to-A (last residue) member of the alanine-scanning series of FP01567
Kd [7]: > 20 µM

B4: FP49257 (peptide)
stapled peptide: Ac-DPATHRCEWAALHCALV-NH2
modifications: bridge 7-14; not fully specified (bridges); printed as Ac-DPATHRCEWAALHCALV-NH2
notes: also called E-to-A (after the second Cys) member of the alanine-scanning series of FP01567
Kd [7]: 1 µM

B5: FP49254 (peptide)
stapled peptide: Ac-DPATHRCEAAALHCELV-NH2
modifications: bridge 7-14; not fully specified (bridges); printed as Ac-DPATHRCEAAALHCELV-NH2
notes: also called W-to-A member of the alanine-scanning series of FP01567
Kd [7]: > 20 µM

B6: FP49258 (peptide)
stapled peptide: Ac-DPATHRCEWAALHCEAV-NH2
modifications: bridge 7-14; not fully specified (bridges); printed as Ac-DPATHRCEWAALHCEAV-NH2
notes: also called L-to-A (penultimate residue) member of the alanine-scanning series of FP01567
Kd [7]: > 20 µM

B7: FP49253 (peptide)
stapled peptide: Ac-DPATHRCAWAALHCELV-NH2
modifications: bridge 7-14; not fully specified (bridges); printed as Ac-DPATHRCAWAALHCELV-NH2
notes: also called E-to-A member of the alanine-scanning series of FP01567
Kd [7]: 2.7 µM

B8: FP49255 (peptide)
stapled peptide: Ac-DPATHRCEWAAAHCELV-NH2
modifications: bridge 7-14; not fully specified (bridges); printed as Ac-DPATHRCEWAAAHCELV-NH2
notes: also called L-to-A member of the alanine-scanning series of FP01567
Kd [7]: > 20 µM

B9: FP49252 (peptide)
stapled peptide: Ac-DPATHACEWAALHCELV-NH2
modifications: bridge 7-14; not fully specified (bridges); printed as Ac-DPATHACEWAALHCELV-NH2
notes: also called R-to-A member of the alanine-scanning series of FP01567
Kd [7]: 0.3 µM

Ac-DPANQDCHVAAWHCWQR-NH2 (bridge 7-14; not fully specified (bridges), Cluster C53) [FP29092]
Kd [6]: 3 µM

B10: MDM2 p53-binding domain, residues 17-111, C17S (enzyme)
chain: SQIPASEQETLVRPKPLLLKLLKSVGAQKDTYTMKEVLFYLGQYIMTKRLYDEKQQHIVYCSNDLLGDLFGVPSFSVKEHRKIYTMIYRNLVVVN
notes: Form for crystallography and the FP assays
Kd [8]: 0.254 µM | Kd [9]: 1.34 µM
